Experimental data: US20240084041A1 (Regeneron, published 2024)

T1: MET on EBC-1 cells (human, UniProt P08581 25-1390)
T1 chain: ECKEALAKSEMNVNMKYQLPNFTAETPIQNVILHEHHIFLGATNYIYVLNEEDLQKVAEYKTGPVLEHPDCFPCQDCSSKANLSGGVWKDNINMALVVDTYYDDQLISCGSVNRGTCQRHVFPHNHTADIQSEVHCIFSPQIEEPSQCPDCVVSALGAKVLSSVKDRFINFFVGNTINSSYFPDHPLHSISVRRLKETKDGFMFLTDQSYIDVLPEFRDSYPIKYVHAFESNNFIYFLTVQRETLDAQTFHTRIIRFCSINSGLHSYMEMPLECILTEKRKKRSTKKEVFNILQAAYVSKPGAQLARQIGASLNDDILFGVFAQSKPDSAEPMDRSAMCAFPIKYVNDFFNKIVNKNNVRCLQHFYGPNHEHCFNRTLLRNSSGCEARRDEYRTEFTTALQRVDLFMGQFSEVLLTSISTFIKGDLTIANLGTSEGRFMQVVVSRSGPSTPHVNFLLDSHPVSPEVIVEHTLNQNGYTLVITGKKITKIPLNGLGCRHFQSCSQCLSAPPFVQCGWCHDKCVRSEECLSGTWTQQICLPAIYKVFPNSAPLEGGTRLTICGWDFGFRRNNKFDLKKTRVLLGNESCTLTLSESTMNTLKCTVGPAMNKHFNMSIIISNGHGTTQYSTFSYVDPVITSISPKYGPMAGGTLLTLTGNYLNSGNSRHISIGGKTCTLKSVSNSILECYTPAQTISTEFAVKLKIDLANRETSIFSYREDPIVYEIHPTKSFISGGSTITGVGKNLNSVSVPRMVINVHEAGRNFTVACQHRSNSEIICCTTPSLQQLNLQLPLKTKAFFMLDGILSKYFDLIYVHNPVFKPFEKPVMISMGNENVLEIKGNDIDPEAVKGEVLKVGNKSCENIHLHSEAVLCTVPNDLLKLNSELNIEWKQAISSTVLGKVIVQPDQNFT


Tests used:
Experiment in all cases: cell-based or functional assay
[1] = molecular target: T2, MET on NCI-H596 cells (MET exon14 skip mutation) (human, UniProt P08581 25-1390)
[2] = molecular target: T2, MET on NCI-H596 cells (MET exon14 skip …); remark: listed apart in the source
MET on EBC-1 cells = molecular target: T1, MET on EBC-1 cells

Row | Relative MET Level (immunoblot, 18 hours, 5 µg/ml, NCI-H596) [1] | Relative Cell Growth (n = 3), NCI-H596 in soft agar, 5 µg/ml, two weeks [2] | Relative Cell Growth (n = 3), EBC-1, 0.1 µg/mL, 5 days (MET on EBC-1 cells) | Relative Cell Growth (n = 3), EBC-1, 1 µg/mL, 5 days (MET on EBC-1 cells) | Binder
1 | 0.5 relative to hFc control | 2.96 relative to control (no treatment) |  |  | H4H13306P2 (antibody, V domains shown) VH: EVQLVESGGGLVQPGTSLRLSCAASGFTFDDYAMHWVRQAPGKGLEWVSGITWNSYNIDYADSVKGRFTISRDNAKNSLYLQMNSLRAEDTALYYCAKDDDYSNYVYFDYWGQGTLVTVSS VL: not shown
2 | 0.24 relative to hFc control | 1.07 relative to control (no treatment) | 0.397 relative to control | 0.462 relative to control | H4H14639D Bispecific Antibody (bispecific antibody, V domains shown) VH 1: EVQLVESGGGLVQPGTSLRLSCAASGFTFDDYAMHWVRQAPGKGLEWVSGITWNSYNIDYADSVKGRFTISRDNAKNSLYLQMNSLRAEDTALYYCAKDDDYSNYVYFDYWGQGTLVTVSS VH 2: EVQLVESGGGLVQPGGSLRLSCAASGFIVTTNYMTWLRQAPGKGLEWVSLIYSSGHTYYADSVKGRFTISRHNSKNTLYLQMDSLRAEDTAVYYCASAFAADVFDIWGQGTMVTVSS VL: not shown
3 | 0.35 relative to hFc control | 1.69 relative to control (no treatment) |  |  | H4H13312P2 (antibody, V domains shown) VH: EVQLVESGGGLVQPGGSLRLSCAASGFIVTTNYMTWLRQAPGKGLEWVSLIYSSGHTYYADSVKGRFTISRHNSKNTLYLQMDSLRAEDTAVYYCASAFAADVFDIWGQGTMVTVSS VL: not shown
